IC50 data for 15 sequences are collected here from the Immune Epitope Database (IEDB).

Holding throughout (experiment): IEDB peptide-MHC binding, purified MHC/competitive/radioactivity; ≥ and ≤ were set here for values at or beyond the usual limits of such assays
Common to all, as to conditions: source organism: Bordetella pertussis

Test [1] concerns the target HLA-B*44:03.
Test [2] has as its target HLA-A*02:01.
For test [3], the target named is HLA-B*57:01.
Test [4] deals with HLA-B*35:01.
The target in test [5] is HLA-B*07:02.
Test [6] concerns the target HLA-B*53:01.

pIC50: −log10 of the molar value.

As to AEKVTTPAV, the negative logarithm of the IC50 (pIC50) in test [1] is 4.41.
Consider AELQTYLRQ, for which the negative logarithm of the IC50 (pIC50) in test [1] is 5.74.
With ALILAASPV, in test [2], the negative logarithm of the IC50 (pIC50) is 4.58.
For AMQGAVVHL, the negative logarithm of the IC50 (pIC50) is 5.58 in test [2] and 4.43 in test [1].
Take AMTHLSPAL: the negative logarithm of the IC50 (pIC50) in test [2] was 6.79.
For ATYIADSGF, in test [3], the pIC50 was 5.38.
With AVAAPAVGA, the negative logarithm of the IC50 (pIC50) in test [2] is at most 4.11.
For the sequence KTNMVVTSV, the pIC50 in test [3] was 5.36.
With LAAQVTQRG, the pIC50 in test [3] is 4.40.
As to LEAGRRFTH, in test [1], the negative-log IC50 (pIC50) is 4.35.
Regarding LMGPLQVNA, the negative logarithm of the IC50 (pIC50) in test [2] was 6.20.
For the sequence LPEPVKLTL, the pIC50 in test [4] was 4.16.
In the case of LPKPVTVKL, the negative logarithm of the IC50 (pIC50) in test [5] is 5.57.
Turning to SLADISLGA, in test [2], the negative-log IC50 (pIC50) is 7.04.
Turning to YIWGLYPTY, the negative-log IC50 (pIC50) in test [6] is 4.32.
